Results reported in patent US20250179215A1, “PLASMIN-BINDING VHHS” (RHEINISCHE FRIEDRICH-WILHELMS-UNIVERSITÄT BONN, priority 2022, published 2025).
“Also recorded” adds a separate entry of the source. Values belong to the molecule of their own block, whether it stands above or below them.

Tests used:
[1] = biological target: human plasmin (human, UniProt P00747 97-580; P00747 581-810); assay: cell-based or functional assay
[2] = biological target: T1, plasmin (Homo sapiens, UniProt P00747); assay: Michaelis-Menten kinetics of plasmin-mediated cleavage of fluorogenic peptide substrate; type: biochemical; details: plasmin 5 nM; VHHs 1 μM, BPTI 3 nM, TXA 7.86 mg/ml; w/o ligand 51.8
T1 construct: human Lys-plasmin which is prepared from homogeneous Glu-plasminogen using uPA; purchased Haematologic Technologies, Inc. (Essex Junction, VT)
T1 sequence (P00747 97-580 limits assumed): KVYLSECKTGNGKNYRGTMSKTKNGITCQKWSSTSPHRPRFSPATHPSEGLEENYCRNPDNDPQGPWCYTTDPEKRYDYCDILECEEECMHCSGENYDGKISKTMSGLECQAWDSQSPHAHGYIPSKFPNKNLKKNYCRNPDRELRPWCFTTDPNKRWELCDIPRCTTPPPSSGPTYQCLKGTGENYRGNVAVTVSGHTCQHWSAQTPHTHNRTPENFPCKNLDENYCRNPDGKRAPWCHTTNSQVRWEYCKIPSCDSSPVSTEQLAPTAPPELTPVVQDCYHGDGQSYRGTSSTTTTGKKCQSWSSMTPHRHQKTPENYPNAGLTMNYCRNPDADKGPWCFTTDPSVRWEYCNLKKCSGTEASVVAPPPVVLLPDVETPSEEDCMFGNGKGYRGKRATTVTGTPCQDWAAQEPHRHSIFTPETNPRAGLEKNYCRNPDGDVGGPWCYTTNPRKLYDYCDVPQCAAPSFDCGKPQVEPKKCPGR
T1 sequence (P00747 581-810 limits assumed): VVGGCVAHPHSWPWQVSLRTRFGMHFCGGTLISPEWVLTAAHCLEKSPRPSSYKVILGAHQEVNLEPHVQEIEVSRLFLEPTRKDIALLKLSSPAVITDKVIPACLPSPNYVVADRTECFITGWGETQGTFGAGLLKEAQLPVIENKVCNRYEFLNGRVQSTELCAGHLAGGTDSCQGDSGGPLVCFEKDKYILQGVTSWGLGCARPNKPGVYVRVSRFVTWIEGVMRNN
Method: Subsequently, 50 μl of the fluorogenic substrate (3.16-3,160 μM final concentration in assay buffer) was added. Substrate hydrolysis rates were monitored by kinetic measurements using the Synergy 2 microplate reader. Apparent Michaelis-Menten constants (Km) and the turn-over number (kcat) values for substrate hydrolysis were calculated from best fit values of the Michaelis-Menten equation and the catalytic efficiencies were expressed as ratios of kcat/Km.
CI, confidence interval. ^a The turnover number (kcat) was calculated using Vmax values extracted from Michaelis-Menten least squares fit.

[3] = system: citrate-anticoagulated whole blood; assay: Rotational thrombelastometry clot lysis in tPA-spiked whole blood; type: biochemical; details: for lysis index at 60 min: concentrations above 1.2 μM, decrease from 65%; for lysis index at 60 min / lysis onset time: tPA 0.5 μg/ml; for lysis onset time: reduced from 47.2 min
From the text: To further test the fibrinolysis-activating properties of VHHs in an ex-vivo model of hyperfibrinolysis, a whole blood based assay can be used whereat citrate-anticoagulated whole blood in the presence of VHHs is spiked with tPA and clot formation and the fibrinolysis rate of the formed clot monitored by thrombelastometry after initiation of clotting by addition of CaCl2) solution containing recombinant TF.
FIG. 4. Influence of VHHs on endogenous fibrinolysis. (A) Citrate-anticoagulated whole blood was mixed with VHHs A11 or C5 and with tPA to achieve a final concentration of 0.5 μg/ml and clot formation was induced by addition of CaCl2) (0.2 M). (B) Lysis index at 60 min(C) Maximum lysis rates, and (D) lysis onset time were recorded. Mean values and SD were calculated out of three measurements.
(§1) The impact of VHHs on the fibrinolytic activity in plasma and whole blood was monitored using rotational thrombelastometry using the ROTEM delta system (TEM Innovations Ltd., Munich, Germany). […] After addition of 0.1 μg/ml tPA, coagulation was initiated by addition of recombinant tissue factor (Dade Innovin, Siemens Healthcare, Marburg, Germany) dissolved 1:100 in calcium chloride (0.2 M). The viscoelasticity of the formed clot was measured in terms of key parameters including clotting time, maximal clot firmness, maximum clot elasticity, maximum lysis, lysis index after 60 minutes, and lysis onset time.

[4] = system: citrate-anticoagulated pooled normal human plasma; assay: Rotational thrombelastometry clot formation parameters in plasma; type: biochemical; details: VHHs or BPTI 2.4 μM, TXA 2.4 μg/ml; tPA 0.1 μg/ml
Method: FIG. 10. The impact of VHHs on the clot formation parameters in plasma monitored by rotational thrombelastometry. […] After addition of tPA to reach a final concentration of 0.1 μg/ml, coagulation was initiated by addition of recombinant tissue factor (Dade® Innovin®) dissolved 1:100 in calcium chloride solution (0.2 M). The viscoelasticity of the formed clot was measured in terms of (A) clotting time, (B) maximum clot firmness, and (C) maximum clot elasticity. A non-binder VHH (GFP-enhancer VHH) was used as negative control. Mean values and SD were calculated out of three measurements.
as §1

[5] = biological target: T1, plasmin; assay: Activated factor V-inactivation assay (prothrombinase assay); type: biochemical; details: for FVa inactivation by plasmin reduced to % of normal: summary statement, concentration not given; for FVa inactivation rate reduced to: plasmin 1.5 nM, rate without VHH = 100%
Method: FIG. 6. (A) Influence of VHHs on plasmin-mediated FVa cleavage. Plasmin (1.5 nM) was incubated with increasing concentrations of VHHs for 30 min at 37° C. After addition of FVa (30 pM) and further incubation for 30 min, FXa (0.52 pM), prothrombin (10 nM) and a fluorogenic thrombin substrate (100 μM) were added and the FVa-dependent thrombin generation was measured. The FVa inactivation rate measured in the absence of VHHs or plasmin inhibitors was set as 100%. […] The data are presented as mean±SD of two independent measurements.
Plasmin-mediated inactivation of activated factor V (FVa) was measured using a prothrombinase assay as recently described (Hamedani 2020). Briefly, 1.5 nM plasmin in assay buffer (20 mM Tris-HCl, 137 mM NaCl, 10 mg/ml phospholipids, 5 mM CaCl2, 1 mg/ml BSA, pH 7.4) was preincubated with VHHs (0.1 nM-10 μM final concentrations) for 30 min at 37° C. Then, 60 μl of the mixture were mixed with 60 μl of […] FVa. After further incubation for 30 min, 25 μl of the reaction mixture were mixed with 50 μl of 1.3 μM human FXa and 100 μM fluorogenic thrombin substrate (Boc-Asp(OBzl)-Pro-Arg-AMC) and 50 μl of 10 nM human prothrombin. Thrombin catalyzed substrate hydrolysis was monitored at λex of 360 nm and λem of 460 nm using the Synergy 2 microplate reader.

[6] = biological target: T1, plasmin; assay: Biolayer Interferometry (BLI) binding of VHHs to human plasmin; details: HIS-tagged VHH on biosensor
Method: (§2) VHHs binding affinities to human and mouse plasminogen/plasmin were assessed according to Biolayer Interferometry (BLI) using the BLItz system (Pall Life Sciences, Dreieich, Germany) and the Blitz 1.2 software package (Hamedani 2016). […] Afterward, the biosensor was lowered into a tube containing 500 μl of binding buffer to determine kd and koff. All measurements were performed at a shaking speed of 2,200 rpm.

[7] = biological target: T2, mouse plasminogen (Mus musculus, UniProt P20918); assay: Biolayer Interferometry (BLI) binding of VHHs to mouse plasminogen; details: HIS-tagged VHH on biosensor
T2 construct: mouse Glu-plasminogen, mouse plasmin; purchased Haematologic Technologies, Inc. (Essex Junction, VT)
T2 sequence (P20918 20-812 limits assumed): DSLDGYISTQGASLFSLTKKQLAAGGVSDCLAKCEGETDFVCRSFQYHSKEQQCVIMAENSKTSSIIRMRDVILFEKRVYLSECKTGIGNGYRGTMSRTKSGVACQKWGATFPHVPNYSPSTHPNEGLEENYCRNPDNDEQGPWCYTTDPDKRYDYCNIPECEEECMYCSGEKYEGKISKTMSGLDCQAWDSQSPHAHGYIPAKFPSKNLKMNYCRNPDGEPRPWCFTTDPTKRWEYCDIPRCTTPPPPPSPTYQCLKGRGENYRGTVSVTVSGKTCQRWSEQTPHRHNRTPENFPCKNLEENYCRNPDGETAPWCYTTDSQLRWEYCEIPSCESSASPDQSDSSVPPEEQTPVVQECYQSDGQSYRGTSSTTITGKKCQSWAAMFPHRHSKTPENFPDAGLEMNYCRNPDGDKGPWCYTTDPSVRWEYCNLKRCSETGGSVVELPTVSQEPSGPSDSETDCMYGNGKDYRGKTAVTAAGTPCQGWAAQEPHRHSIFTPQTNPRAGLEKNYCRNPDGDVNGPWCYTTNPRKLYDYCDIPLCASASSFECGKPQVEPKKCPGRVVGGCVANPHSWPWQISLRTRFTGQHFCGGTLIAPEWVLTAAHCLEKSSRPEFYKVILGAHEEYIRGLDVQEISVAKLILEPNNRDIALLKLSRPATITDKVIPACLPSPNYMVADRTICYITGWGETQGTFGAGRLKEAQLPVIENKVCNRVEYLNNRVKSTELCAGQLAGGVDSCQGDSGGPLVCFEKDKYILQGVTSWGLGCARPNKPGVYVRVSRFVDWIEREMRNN
Method: as §2

[8] = biological target: Ocriplasmin (Homo sapiens, UniProt P00747); assay: Biolayer Interferometry (BLI) binding of VHHs to ocriplasmin (miniplasmin); details: HIS-tagged VHH on biosensor
Sequence of Ocriplasmin (P00747 581-810 limits assumed, other chains not shown): as the sequence (P00747 581-810 limits assumed) above
Method: as §2

[9] = biological target: T3, tPA (Homo sapiens, UniProt P00750); assay: Biolayer Interferometry (BLI) binding of VHHs to tPA; details: HIS-tagged VHH on biosensor
T3 construct: purchased Boehringer Ingelheim (Biberach, Germany) Actilyse
T3 sequence (P00750 36-562): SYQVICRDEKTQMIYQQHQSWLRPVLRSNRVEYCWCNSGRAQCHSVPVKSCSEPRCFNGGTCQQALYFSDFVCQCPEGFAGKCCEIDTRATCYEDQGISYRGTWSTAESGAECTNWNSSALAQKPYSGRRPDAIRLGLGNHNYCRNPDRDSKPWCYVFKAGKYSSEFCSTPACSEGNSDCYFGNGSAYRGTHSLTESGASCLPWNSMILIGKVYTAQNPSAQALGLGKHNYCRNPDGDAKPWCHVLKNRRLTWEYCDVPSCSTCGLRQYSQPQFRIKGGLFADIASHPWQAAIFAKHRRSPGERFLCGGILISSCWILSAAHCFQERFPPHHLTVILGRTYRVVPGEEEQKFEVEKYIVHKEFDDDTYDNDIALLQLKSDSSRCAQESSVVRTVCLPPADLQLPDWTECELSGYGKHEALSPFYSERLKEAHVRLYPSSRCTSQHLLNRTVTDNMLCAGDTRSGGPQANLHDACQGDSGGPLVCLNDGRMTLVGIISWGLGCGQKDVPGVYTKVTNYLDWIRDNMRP

[10] = biological target: T1, plasmin; assay: VHHs competition ELISA (plasmin binding to immobilized VHH); details: free VHH vs immobilized VHH; plasmin 10 nM
Method: FIG. 2. VHHs competition ELISA. The VHH (A) A11 or (B) C5 was immobilized in the microtiter plate by overnight incubation of 10 μg/ml VHH in 100 μl of coating buffer. […] Data represent the mean±SD of two measurements.
To assess the competition of VHHs for similar or overlapping binding sites on the plasmin molecule, a competition ELISA was performed. Microtiter (96-well) plates were coated with VHHs (10 μg/ml in coating buffer, 100 μl/well) at 2-8° C. overnight. Wells were washed and non-specific protein-binding sites were blocked with 20 mg/ml bovine serum albumine (BSA) for 2 h at RT. After removing the blocking buffer, wells were overlaid with a reaction mixture containing plasmin (10 nM) and VHHs (0.316 nM-31.6 μM) in buffer (20 mM HEPES, 154 mM NaCl, BSA 1 mg/ml, pH 7.4) for 30 min at RT. After washing the amount of bound plasmin was quantified through hydrolysis rates of the fluorogenic plasmin substrate (300 μM, 100 μl/well). The fluorescence intensity measured in the absence of free VHHs was set as 100%.

[11] = biological target: T1, plasmin; assay: Influence on catalytic activity of plasmin with fluorogenic peptide substrate; type: biochemical; details: plasmin 5 nM; for increase in substrate conversion: at molar ratios of VHHs over plasmin of 158 (A11) and 500 (C5)
Method: FIG. 3. Effect of plasmin VHHs on the catalytic activity of plasmin for peptide substrates. […] Mean values and SD were calculated out of three measurements.
After incubation, 50 μl of the mixtures were transferred to the wells of black F16 Fluoronunc modules (Thermo Fisher Scientific [Nunc]). Subsequently, 50 μl of 800 μM PLM-specific fluorogenic peptide substrate in the assay buffer (H-Ala-Phe-Lys-AMC, Bachem) was added to the wells and the kinetics of plasmin-mediated substrate hydrolysis was monitored using the Synergy 2 microplate reader.

[12] = biological target: T4, plasminogen (Homo sapiens, UniProt P00747); assay: Plasmin generation assay (tPA-mediated plasminogen activation, purified system); type: biochemical; details: for inhibition of plasmin generation at higher concentrations: at the assessed / higher concentrations; for EC50: plasminogen 10 nM, tPA 10 nM, read-out: EC50 of tPA-induced plasmin generation
T4 construct: Plasma derived human Glu-plasminogen; purchased Haematologic Technologies, Inc. (plasminogen); Boehringer Ingelheim (tPA)
T4 sequence (P00747 20-810 limits assumed): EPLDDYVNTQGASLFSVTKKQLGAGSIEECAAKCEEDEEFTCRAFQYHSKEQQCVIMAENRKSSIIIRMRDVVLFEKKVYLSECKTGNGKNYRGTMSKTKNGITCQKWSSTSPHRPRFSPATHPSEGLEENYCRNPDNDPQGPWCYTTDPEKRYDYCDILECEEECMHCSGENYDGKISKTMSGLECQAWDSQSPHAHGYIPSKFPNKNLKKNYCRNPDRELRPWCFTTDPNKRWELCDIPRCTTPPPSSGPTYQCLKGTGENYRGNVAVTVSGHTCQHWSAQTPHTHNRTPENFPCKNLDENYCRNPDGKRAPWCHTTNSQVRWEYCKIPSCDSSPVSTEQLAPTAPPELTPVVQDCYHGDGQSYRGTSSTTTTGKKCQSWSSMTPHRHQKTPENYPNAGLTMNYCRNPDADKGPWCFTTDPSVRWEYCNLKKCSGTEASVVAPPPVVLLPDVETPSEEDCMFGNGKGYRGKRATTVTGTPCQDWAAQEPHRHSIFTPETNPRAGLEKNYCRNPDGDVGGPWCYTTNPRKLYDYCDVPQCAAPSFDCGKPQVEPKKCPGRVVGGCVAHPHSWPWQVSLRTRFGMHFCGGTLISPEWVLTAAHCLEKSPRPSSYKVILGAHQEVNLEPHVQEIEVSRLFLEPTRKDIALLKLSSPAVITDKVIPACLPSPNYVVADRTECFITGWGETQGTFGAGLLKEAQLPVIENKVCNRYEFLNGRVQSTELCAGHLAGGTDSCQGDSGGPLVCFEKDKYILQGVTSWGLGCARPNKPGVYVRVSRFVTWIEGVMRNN
Method: In order to assess the influence of VHHs on tPA-mediated plasminogen activation, plasminogen was preincubated with increasing concentrations of VHHs. After addition of tPA, plasmin generation was measured over time using a fluorogenic plasmin peptide substrate.
FIG. 5. Influence of VHHs on tPA-mediated plasminogen activation. […] After addition of tPA (10 nM final concentration) plasmin generation was measured over time using the fluorogenic plasmin assay. The data are presented as mean±SD of three independent measurements.
Plasminogen (50 nM) was incubated with VHHs (2 μM to 0.2 μM) for 30 min at 37° C. in assay buffer. Subsequently, 20 μl of 50 nM tPA was added to the mixture and incubated at 37° C. After 3 hours of incubation at 37° C., 50 μl of the mixture were transferred to the wells of black F16 Fluoronunc modules and after addition of 50 μl of the plasmin-specific fluorogenic substrate (800 μM) fluorescence intensities were measured at λex of 360 nm and λem of 460 nm using the Synergy 2 microplate reader.

Sequence of human plasmin (P00747 97-580 limits assumed, chain 1 of 2): as the sequence (P00747 97-580 limits assumed) above
Sequence of human plasmin (P00747 581-810 limits assumed, chain 2 of 2): as the sequence (P00747 581-810 limits assumed) above

residual plasmin activity after incubation with α2AP [1]: < 0.1%
Molecule: human alpha2-antiplasmin (from UniProt P08697 40-491)

kD human plasmin [6]: low nanomolar range
kD mouse plasminogen [7]: no reactivity
kD Ocriplasmin ([8]; listed as C5): None of these VHHs bind and n.b.
kD tPA [9]: weak binding
inhibition of plasmin generation at higher concentrations [12]: no inhibitory effect
EC50 [12]: 2.3 nM
FVa inactivation rate reduced to ([5]; C5 concentration of 3.16 nM or higher): 78%
FVa inactivation by plasmin reduced to % of normal [5]: 80%
B2: VHH C5: Plasmin-binding alpaca VHH; variable domain SEQ ID NO: 10, or 20 with C-terminal His6-tag; CDRs SEQ ID NO: 4-6 (protein)
VHH: QVQLVESGGGLVQAGGSLRLSCAASGRRFMVVAMGWYRQAPGNQRELVASITNGGTTNYAGSVKGRFTISGDSAKNTVYLHMNSLKPEDTAVYYCTTDVVFRDGNGQIQSNWGQGTQVTVSS
modifications: C5 VHH
competition of VHHs for binding site on plasmin molecule [10]: competed for the same or overlapping binding site
increase in substrate conversion [11]: approx. 2.5 fold
kcat × 10^3 (s^−1) mean (95% CI) [2]: 69.9 (68-72) s^−1
lysis index at 60 min [3]: 0%
lysis onset time [3]: 13.8 min

Second part, the molecule before the results:

Molecule: Aprotinin [BPTI, reference compound]
kcat × 10^3 (s^−1) mean (95% CI) [2]: 29.6 (29-30) s^−1
effect on lysis compared to VHHs (FIG. 4C, maximum lysis rates) ([3]; tPA-spiked whole blood): inhibition of lysis
effect on fibrin clot formation parameters (clotting time, maximum clot firmness, maximum clot elasticity) [4]: does not affect
maximal inhibition rate of plasmin-mediated cleavage of FVa ([5]; BPTI 10 μM): 26%
FVa inactivation by plasmin reduced to % of normal [5]: 20%

B1: VHH A11: Plasmin-binding alpaca VHH; variable domain SEQ ID NO: 9, or 11 with C-terminal His6-tag; CDRs SEQ ID NO: 1-3 (protein)
VHH: QVQLVETGGGLVQAGGSLRLSCAASGNIFSINAMDWYRQAPGKERELVAAITSGGTTNYADSVKGRFTISRDNAKDTVYLQMNSLKPEDAAFYYCNADGYYSDYDKNLAEFNSWGQGTQVTVSS
modifications: A11 VHH
kD human plasmin [6]: low nanomolar range
kD mouse plasminogen [7]: no reactivity
kD Ocriplasmin ([8]; listed as A11): None of these VHHs bind; also recorded: n.b.*
kD tPA [9]: weak binding
competition of VHHs for binding site on plasmin molecule [10]: competed for the same or overlapping binding site
molar ratio of VHHs over plasmin at which approx. 2.5-fold increase in substrate conversion was achieved ([11]; H-Ala-Phe-Lys-AMC): 158
increase in substrate conversion [11]: approx. 2.5 fold
kcat × 10^3 (s^−1) mean (95% CI) [2]: 67.2 (65-70) s^−1
lysis index at 60 min [3]: 0%
lysis onset time [3]: 10.3 min
inhibition of plasmin generation at higher concentrations [12]: no inhibitory effect
EC50 [12]: 0.93 nM
FVa inactivation rate reduced to ([5]; A11 concentrations above 10^-9 M): 60%
FVa inactivation by plasmin reduced to % of normal ([5]; listed as A11): 60%
